T1: irrelevant FLR-peptide (Homo sapiens, UniProt P15941, R1131P)
T1 construct: ID No. 2: FLR peptide
T1 sequence (P15941 with tags, fused parts or gaps R1131P): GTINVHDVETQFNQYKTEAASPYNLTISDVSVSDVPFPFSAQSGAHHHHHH


Tests used:
GST-bound colloids = test: Colloid/colloid linkage colour-change assay on NTA colloids, negative control protein (Example 7); assay type: binding; conditions: 100 ul or 50 ul protein; room temperature
Experimental: (§1) 600 microliters colloids, derivatized with a self-assembled monolayer that presents nitrilo tri-acetic acid, NTA (for the capture of histidine-tagged proteins), was mixed with 60 microliters of 500 micromolar histidine-tagged RGD-motif-containing peptide. 600 microliters of a second set of NTA-Ni presenting colloids was mixed with 60 ul of a 500 uM solution of histidine-tagged GST, an irrelevant protein, as a negative control. Colloids were spun down and resuspended in phosphate buffer to remove residual unbound protein or peptide. Endostatin and Angiostatin, two proteins implicated in angiogenesis and suspected of binding to regions of vitronectin, such as the RGD peptide, were prepared by dialysis into phosphate-buffered saline solution and then 1:10 dilution into PBS from a stock concentration of 1 mg/mL.
(§2) 400 ul phosphate buffer (pH 7.4), 200 ul either RGD-bound colloids or GST-bound colloids, and either 100 ul endostatin or angiostatin, 50 ul endostatin or angiostatin/50 ul phosphate buffer, or 100 ul phosphate buffer (as a negative control) were added to each well of a crystallization dish. Color change was monitored over time at room temperature. […] The histidine-tagged proteins were then eluted using imidazole, and the samples were analyzed by SDS-PAGE.

[1] = system: RGD-peptide-bound colloids; test: Colloid/colloid linkage colour-change assay on NTA colloids (Example 7); assay type: binding; conditions: 100 ul or 50 ul protein; room temperature, after approximately 15 minutes
Experimental: as §1, §2

[2] = system: His-tagged GRGDS motif peptide; test: NTA-Ni agarose pull-down with SDS PAGE of eluate and flow through (Example 2); assay type: binding; conditions: 0.1 mg/mL protein; imidazole (250 mM) elution
Experimental: 200 μL NTA-Ni agarose (Qiagen) were washed 2× with 100 μL ddH20, then with wash buffer A, containing 50 mM NaH2PO4, 300 mM NaCl, and 10 mM imidazole at pH 8.0.
A synthetic peptide, was dissolved in DMSO then diluted in phosphate buffer to a final concentration of 1 mM. 100 μL of this peptide solution was incubated with the NTA-Ni resin for 20 minutes at room temperature to allow binding of the histidine-tagged peptide to the NTA-Ni resin. The resin was then pelleted and the supernatant was removed. The resin was washed in buffer A. The peptide bound resin was then divided into two aliquots. A first aliquot was mixed with 100 μL human recombinant endostatin (0.1 mg/mL in 10 mM sodium phosphate buffer, 100 mM sodium chloride, pH 7.4, diluted from stock endostatin, Calbiochem 324746). A second aliquot was mixed with 100 μL human angiostatin, Calbiochem 176700(0.1 mg/mL in 10 mM sodium phosphate buffer, 100 mM sodium chloride, pH 7.4. The beads and angiogenesis inhibitors were incubated on ice 15-20 minutes to allow binding to the bead-immobilized peptide. The resin was then pelleted. The supernatants were removed and reserved for analysis by SDS PAGE (flow through). The beads were then washed 2× with 10 mM sodium phosphate buffer. The histidine-tagged peptides and any immobilized drug were eluted by the addition of 4 aliquots of an imidazole (250 mM) wash.

GRGDS peptide = test: Gold colloid colour-change binding assay, RGD peptide colloids (Example 6); conditions: endostatin 0.1 mg/mL; wells A1, A2
Experimental: (§3) 40 μM NTA gold colloids were prepared which presented the His-tagged RGD peptide (Sequence ID No.1, see Table 1). These colloids were mixed with endostatin (0.1 mg /mL) and turned blue, indicating binding of endostatin to the GRGDS peptide (A1, A2, FIG. 6). Control colloids presenting an irrelevant FLR-peptide (Sequence ID #2, see table 1) remained pink (wells A3, A4). At the highest concentration of vitronectin (0.1 mg /ml), the endostatin—GRGDS interaction is disrupted, and the well remains pink (B1). At lower concentrations of vitronectin, the endostatin—GRDS interaction is not affected and the wells turn blue (B2-B5).

[3] = system: resin-immobilized RGD peptide; test: NTA-Ni agarose resin binding verified by SDS-PAGE (Example 7); conditions: imidazole elution
Experimental: as §2, with “The color change was more pronounced in the well that contained 100 ul endostatin than in the well that contained 50 ul endostatin/50 ul phosphate buffer. […] The results were verified by gel electrophoresis. The RGD peptide and histidine-tagged GST were bound to a small amount of NTA-Ni agarose resin at saturating concentration. Endostatin was incubated with the resin and allowed to bind to the protein on the resin. The” for “The”

resin-immobilized GST = test: NTA-Ni agarose resin binding verified by SDS-PAGE, control (Example 7); conditions: imidazole elution
Experimental: as §2, with “The color change was more pronounced in the well that contained 100 ul endostatin than in the well that contained 50 ul endostatin/50 ul phosphate buffer. […] The results were verified by gel electrophoresis. The RGD peptide and histidine-tagged GST were bound to a small amount of NTA-Ni agarose resin at saturating concentration. Endostatin was incubated with the resin and allowed to bind to the protein on the resin. The” for “The”

irrelevant FLR-peptide = target: T1, irrelevant FLR-peptide; test: Gold colloid colour-change binding assay, control colloids (Example 6); conditions: endostatin 0.1 mg/mL; wells A3, A4
Experimental: as §3

His-tagged GRGDS motif peptide, sequence (as listed by the source): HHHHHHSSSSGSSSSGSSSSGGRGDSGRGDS
resin-immobilized RGD peptide, sequence (as listed by the source): as above
GRGDS peptide, sequence (as listed by the source): as above

Row | Molecule | colour change of GST-bound colloids (GST-bound colloids) | colour change of RGD-peptide-bound colloids [1] | co-elution with GRGDS motif peptide (SDS PAGE) [2] | colloid colour (binding to GRGDS peptide) (GRGDS peptide) | binding to resin-immobilized RGD peptide (SDS-PAGE) [3] | binding to resin-immobilized GST (SDS-PAGE) (resin-immobilized GST) | colloid colour (binding to FLR peptide) (irrelevant FLR-peptide)
1 | angiostatin: human angiostatin, Calbiochem 176700, angiogenesis inhibitor protein (protein) YLSECKTGNGKNYRGTMSKTKNGITCQKWSSTSPHRPRFSPATHPSEGLEENYCRNPDNDPQGPWCYTTDPEKRYDYCDILECEEECMHCSGENYDGKISKTMSGLECQAWDSQSPHAHGYIPSKFPNKNLKKNYCRNPDRELRPWCFTTDPNKRWELCDIPRCTTPPPSSGPTYQCLKGTGENYRGNVAVTVSGHTCQHWSAQTPHTHNRTPENFPCKNLDENYCRNPDGKRAPWCHTTNSQVRWEYCKIPSCDSSPVSTEQLAPTAPPELTPVVQDCYHGDGQSYRGTSSTTTTGKKCQSWSSMTPHRHQKTPENYPNAGLTMNYCRNPDADKGPWCFTTDPSVRWEYCNLKKCSGTEA | No color change | No color change | did not |  |  |  | 
2 | endostatin: human recombinant endostatin (Calbiochem 324746), known angiogenesis inhibitor protein, a dimer in its functional form (protein, UniProt P39060 1572-1754, looked up, Endostatin) Endostatin: HSHRDFQPVLHLVALNSPLSGGMRGIRGADFQCFQQARAVGLAGTFRAFLSSRLQDLYSIVRRADRAAVPIVNLKDELLFPSWEALFSGSEGPLKPGARIFSFDGKDVLRHPTWPQKSVWHGSDPNGRRLTESYCETWRTEAPSATGQASSLLGGRLLGQSAASCHHAYIVLCIENSFMTASK | No color change | color change from red to blue | co-eluted | turned blue | bound | did not bind | remained pink
